Laboratory results reported in paper PMC2480485 (Journal of Biomolecular Nmr, 2008).

Tests used:
[1] = target: mouse Src SH3 domain, residues 85-142 (mouse) (UniProt P05480); assay: paramagnetic relaxation enhancement NMR
[2] = target: mouse Src SH3 domain, residues 85-142 (mouse) (UniProt P05480); assay: NMR titration
[3] = target: mouse Src SH3 domain, residues 85-142 (mouse, UniProt P05480-2 85-142); assay: NMR titration

Molecule	fraction of protein bound [1] [%]	Kd [2] [µM]	Kd [3] [µM]
peptide P3Tm (RALP-TOAC-IPKL, TOAC within the core binding motif of the FAK peptide)	44	900	
Ac-RALPSIPKL-NH2 [peptide P3 (unlabelled control peptide derived from focal adhesion kinase, RALPSIPKL)]			56 ± 11
